Results from paper PMC3174154, “Protein-Protein Interactions in Crystals of the Human Receptor-Type Protein Tyrosine Phosphatase ICA512 Ectodomain” (PLoS ONE, 2011).

Experiments:
[1] = target: the molecule itself; assay: SEC; Superose 12, 20°C, 20 mM sodium phosphate, 150 mM NaCl, pH 7.0; each variant injected at 500 µM in 100 µl, alone or preincubated and injected together
[2] = target: the molecule itself; assay: SEC; Rs against protein concentration in the eluting peak; monomer-dimer equilibrium fitted (dimer to monomers); the text names size exclusion chromatography and light scattering

B1: mature ectodomain of ICA512 (ME ICA512), wild type, residues 470 to 558 (domain or fragment, human, UniProt Q16849 470-558, looked up)
chain: EYGYIVTDQKPLSLAAGVKLLEILAEHVHMSSGSFINISVVGPALTFRIRHNEQNLSLADVTQQAGLVKSELEAQTGLQILQTGVGQRE
notes: the results say 470 to 556; The methods give 470-558, the results 470-556; also called wild-type ME ICA512; wild type variant
- stoichiometry N [1]: 2
- Kd [2]: 800 nM
